Experimental data: patent US20100222559, “NUCLEIC ACID MOLECULE CAPABLE OF BINDING TO RABBIT-DERIVED lgG ANTIBODY” (published 2010)

B1: SEQ ID NO: 2 RNA aptamer (ssRNA)
RNA: GGGAGAAUUCCGACCAGAAGUUUUUAAACCGCGCCUUGGAAGCGUACGUUGGCCUUUCCUCUCUCCUCCUUCUUCU
B2: SEQ ID NO: 4 RNA aptamer (ssRNA)
RNA: GGGAGAAUUCCGACCAGAAGCGCAAGCCGGCCCUUGGAAGGCUAGUCGGUCUUUCCUCUCUCCUCCUUCUUCU
B3: SEQ ID NO: 3 RNA aptamer (ssRNA)
RNA: GGGAGAAUUCCGACCAGAAGCAAAUUGCCGGGCCUUGGAAGCCAAGUCGCUUUCCUCUCUCCUCCUUCUUCU
B4: SEQ ID NO: 1 RNA aptamer (ssRNA)
RNA: GGGAGAAUUCCGACCAGAAGAAGUUCGAUACGCCGUGGGGUGACGUUGGCUGCCCUUUCCUCUCUCCUCCUUCUUCU
B5: SEQ ID NO: 5 RNA aptamer (ssRNA)
RNA: GGGAGAAUUCCGACCAGAAGUUCGAUACGCCGUGGGGUGACGUUGGCUACCUUUCCUCUCUCCUCCUUCUUCU

Key:
[1] = system: rabbit anti-mouse IgG antibody (Oryctolagus cuniculus); test: SPR; details: RNA with 5' A24 extension captured on biotin-dT24 SA chip; 25 C
mouse IgG (Mus musculus) = test: filter; details: specificity control, 100 nM protein
[2] = system: rabbit anti-GST IgG + glutathione-S-transferase (mixture) (Oryctolagus cuniculus / Schistosoma japonicum); test: filter; details: 100 nM GST + 100 nM anti-GST IgG
goat IgG (Capra hircus) = test: filter; details: specificity control, 100 nM protein
[3] = system: rabbit anti-mouse IgG antibody (Oryctolagus cuniculus); test: filter; details: 20 nM RNA, 100 nM protein, 5 mM MgCl2, RT
[4] = system: rabbit anti-GST antibody (IgG) (Oryctolagus cuniculus); test: filter; details: 20 nM RNA, 100 nM protein
[5] = biological target: glutathione-S-transferase (GST) (Schistosoma japonicum, UniProt P08515 P08515:2-218); test: filter; specificity control, 100 nM protein; details: tags: prepared in laboratory from GE vector; chain copies: 2; label: 32P (filter assay)
Chain of glutathione-S-transferase (GST) (P08515 2-218, one chain of several): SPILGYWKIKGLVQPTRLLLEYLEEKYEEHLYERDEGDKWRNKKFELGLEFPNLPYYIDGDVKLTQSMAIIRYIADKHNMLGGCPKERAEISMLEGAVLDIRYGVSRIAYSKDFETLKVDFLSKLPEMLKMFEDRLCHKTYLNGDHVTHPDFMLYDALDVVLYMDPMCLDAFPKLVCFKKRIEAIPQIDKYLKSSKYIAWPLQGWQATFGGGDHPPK
Method: (§1) The RNAs (20 nM) set forth in SEQ ID NOS: 1 to 5, and the materials (100 nM each) shown in “Material List” below, were incubated in a binding buffer, and then, their binding strength was measured in accordance with the methods described in “Radiolabeling” and “Binding Experiment” below.
(§2) The resulting mixture was introduced onto a filter (trade name: MF-membrane filter, manufactured by Millipore) by way of suctioning it with a suction device, and then, the filter was washed with a binding buffer that was 20 times the volume of the mixture. The radiation intensity of the filter obtained in this manner was measured with a Bio-Imaging Analyzer BAS-2500 (using, as an imaging plate, BAS-MS2040 manufactured by Fuji Film Co., Ltd.) manufactured by Fuji Film Co., Ltd. The radiation intensity was visualized with Image Reader (Fuji Film Co., Ltd.), and the obtained data were converted into numerical values with Image Gauge ver. 4.0 (Fuji Film Co., Ltd.).

bovine serum albumin = bovine serum albumin (Bos taurus, UniProt P02769 P02769:25-607); test: filter; specificity control, 100 nM protein; buffer only 0.3%; details: tags: SIGMA; label: 32P (filter assay)
Chain of bovine serum albumin (P02769 25-607, one chain of several): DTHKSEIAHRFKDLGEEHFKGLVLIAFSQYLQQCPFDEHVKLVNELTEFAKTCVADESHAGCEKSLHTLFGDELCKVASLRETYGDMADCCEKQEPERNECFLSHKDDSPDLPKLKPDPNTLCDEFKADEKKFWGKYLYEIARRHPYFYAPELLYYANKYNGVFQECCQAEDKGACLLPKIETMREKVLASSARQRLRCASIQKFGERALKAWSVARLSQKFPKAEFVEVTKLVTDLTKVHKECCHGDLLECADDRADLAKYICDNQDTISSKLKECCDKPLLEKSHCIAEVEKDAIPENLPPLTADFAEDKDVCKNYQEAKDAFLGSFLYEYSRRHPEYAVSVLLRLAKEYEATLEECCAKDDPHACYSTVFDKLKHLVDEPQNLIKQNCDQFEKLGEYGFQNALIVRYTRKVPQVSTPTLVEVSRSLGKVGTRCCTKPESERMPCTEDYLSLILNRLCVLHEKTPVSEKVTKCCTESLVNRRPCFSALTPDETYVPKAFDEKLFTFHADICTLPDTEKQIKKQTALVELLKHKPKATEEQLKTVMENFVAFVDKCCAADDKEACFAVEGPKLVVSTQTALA
Method: as §1, §2

Molecule	Kd [1]	binding signal (mouse IgG (Mus musculus))	binding signal [2]	binding signal (goat IgG (Capra hircus))	binding signal [3]	binding signal ([4]; buffer only 0.3%)	binding signal [5]	binding signal (bovine serum albumin)	also measured
GGGAGAAUUCCGACCAGAAGAAGUUCGAUACGCCGUGGGGUGACGUUGGCUGCCCUUUCCUCUCUCCUCCUUCUUCU [SEQ ID NO: 1 RNA aptamer]	0.013 nM	0.6 % bound	13.6 % bound	0.8 % bound					binding signal ([3]; 50 mM HEPES pH 7.4, 150 mM NaCl): 19.1 % bound; binding signal ([4]; buffer only 0.2%): 19.1 % bound
GGGAGAAUUCCGACCAGAAGCGCAAGCCGGCCCUUGGAAGGCUAGUCGGUCUUUCCUCUCUCCUCCUUCUUCU [SEQ ID NO: 4 RNA aptamer]	103 nM	0.5 % bound	20.7 % bound	0.3 % bound	23.4 % bound	23.4 % bound			
GGGAGAAUUCCGACCAGAAGUUUUUAAACCGCGCCUUGGAAGCGUACGUUGGCCUUUCCUCUCUCCUCCUUCUUCU [SEQ ID NO: 2 RNA aptamer]	51.5 nM	0.5 % bound	14.2 % bound	0.7 % bound	24.6 % bound				binding signal ([4]; buffer only 0.4%): 24.6 % bound
GGGAGAAUUCCGACCAGAAGCAAAUUGCCGGGCCUUGGAAGCCAAGUCGCUUUCCUCUCUCCUCCUUCUUCU [SEQ ID NO: 3 RNA aptamer]	118 nM	1.8 % bound	14.4 % bound	1 % bound	20.9 % bound	20.9 % bound			
GGGAGAAUUCCGACCAGAAGUUCGAUACGCCGUGGGGUGACGUUGGCUACCUUUCCUCUCUCCUCCUUCUUCU [SEQ ID NO: 5 RNA aptamer]	0.0147 nM	0.5 % bound	48.8 % bound	0.3 % bound	58.1 % bound	58.1 % bound			
B1							0.6 % bound		
B2							0.4 % bound	0.4 % bound	
B3							0.6 % bound	1 % bound	
B4							0.7 % bound		
B5							0.6 % bound	0.9 % bound	
